Sequences and labels used below:
B1: IgG1-F1112 (antibody)
heavy: QVQLQESGPGLVKPSETLSLTCAVSGHSISHDHAWSWVRQPPGEGLEWIGFISYSGITNYNPSLQGRVTISRDNSKNTLYLQMNSLRAEDTAVYYCARSLARTTAMDYWGEGTLVTVSSASTKGPSVFPLAPSSKSTSGGTAALGCLVKDYFPEPVTVSWNSGALTSGVHTFPAVLQSSGLYSLSSVVTVPSSSLGTQTYICNVNHKPSNTKVDKKVEPKSCDKTHTCPPCPAPELLGGPSVFLFPPKPKDTLYISRTPEVTCVVVDVSHEDPEVKFNWYVDGVEVHNAKTKPREEQYNSTYRVVSVLTVLHQDWLNGKEYKCKVSNKALPAPIEKTISKAKGQPREPQVYTLPPSRDELTKNQVSLTCLVKGFYPSDIAVEWESNGQPENNYKTTPPVLDSDGSFFLYSKLTVDKSRWQQGNVFSCSVMHEALHYHVTKKSLSLSP
light: not shown
notes: EU numbering; copies: 2 + 2
B2: IgG1-F1115 (antibody)
heavy: QVQLQESGPGLVKPSETLSLTCAVSGHSISHDHAWSWVRQPPGEGLEWIGFISYSGITNYNPSLQGRVTISRDNSKNTLYLQMNSLRAEDTAVYYCARSLARTTAMDYWGEGTLVTVSSASTKGPSVFPLAPSSKSTSGGTAALGCLVKDYFPEPVTVSWNSGALTSGVHTFPAVLQSSGLYSLSSVVTVPSSSLGTQTYICNVNHKPSNTKVDKKVEPKSCDKTHTCPPCPAPELLGGPSVFLFPPKPKDTLYISRTPEVTCVVVDVSHEDPEVKFNWYVDGVEVHNAKTKPREEQYNSTYRVVSVLTVLHQDWLNGKEYKCKVSNKALPAPIEKTISKAKGQPREPQVYTLPPSRDELTKNQVSLTCLVKGFYPSDIAVEWESNGQPENNYKTTPPVLDSDGSFFLYSKLTVDKSRWQQGNVFNCSVMHEALHYHVTQKSLSLSP
light: not shown
notes: EU numbering; copies: 2 + 2
B3: IgG1-F1117 (antibody)
heavy: QVQLQESGPGLVKPSETLSLTCAVSGHSISHDHAWSWVRQPPGEGLEWIGFISYSGITNYNPSLQGRVTISRDNSKNTLYLQMNSLRAEDTAVYYCARSLARTTAMDYWGEGTLVTVSSASTKGPSVFPLAPSSKSTSGGTAALGCLVKDYFPEPVTVSWNSGALTSGVHTFPAVLQSSGLYSLSSVVTVPSSSLGTQTYICNVNHKPSNTKVDKKVEPKSCDKTHTCPPCPAPELLGGPSVFLFPPKPKDVLYISRTPEVTCVVVDVSHEDPEVKFNWYVDGVEVHNAKTKPREEQYNSTYRVVSVLQVLHADWLNGKEYKCKVSNKALPAPIEKTISKAKGQPREPQVYTLPPSRDELTKNQVSLTCLVKGFYPSDIAVEWESNGQPENNYKTTPPVLDSDGSFFLYSKLTVDKSRWQQGNVFNCSVMHEALHYHVTQKSLSLSP
light: not shown
notes: EU numbering; copies: 2 + 2
B4: IgG1-F1122 (antibody)
heavy: QVQLQESGPGLVKPSETLSLTCAVSGHSISHDHAWSWVRQPPGEGLEWIGFISYSGITNYNPSLQGRVTISRDNSKNTLYLQMNSLRAEDTAVYYCARSLARTTAMDYWGEGTLVTVSSASTKGPSVFPLAPSSKSTSGGTAALGCLVKDYFPEPVTVSWNSGALTSGVHTFPAVLQSSGLYSLSSVVTVPSSSLGTQTYICNVNHKPSNTKVDKKVEPKSCDKTHTCPPCPAPELLGGPSVFLFPPKPKDVLYISRTPEVTCVVVDVSHEDPEVKFNWYVDGVEVHNAKTKPREEQYNSTYRVVSVLQPLHADWLNGKEYKCKVSNKALPAPIEKTISKAKGQPREPQVYTLPPSRDELTKNQVSLTCLVKGFYPSDIAVEWESNGQPENNYKTTPPVLDSDGSFFLYSKLTVDKSRWQQGNVFSCSVMHEALHYHVTRKSLSLSP
light: not shown
notes: EU numbering; copies: 2 + 2
B5: IgG1-F1124 (antibody)
heavy: QVQLQESGPGLVKPSETLSLTCAVSGHSISHDHAWSWVRQPPGEGLEWIGFISYSGITNYNPSLQGRVTISRDNSKNTLYLQMNSLRAEDTAVYYCARSLARTTAMDYWGEGTLVTVSSASTKGPSVFPLAPSSKSTSGGTAALGCLVKDYFPEPVTVSWNSGALTSGVHTFPAVLQSSGLYSLSSVVTVPSSSLGTQTYICNVNHKPSNTKVDKKVEPKSCDKTHTCPPCPAPELLGGPSVFLFPPKPKDVLYISRTPEVTCVVVDVSHEDPEVKFNWYVDGVEVHNAKTKPREEQYNSTYRVVSVLQPLHADWLNGKEYKCKVSNKALPAPIEKTISKAKGQPREPQVYTLPPSRDELTKNQVSLTCLVKGFYPSDIAVEWESNGQPENNYKTTPPVLDSDGSFFLYSKLTVDKSRWQQGNVFSCSVMHEALHYHVTRKELSLSP
light: not shown
notes: EU numbering; copies: 2 + 2
B6: IgG1-F1121 (antibody)
heavy: QVQLQESGPGLVKPSETLSLTCAVSGHSISHDHAWSWVRQPPGEGLEWIGFISYSGITNYNPSLQGRVTISRDNSKNTLYLQMNSLRAEDTAVYYCARSLARTTAMDYWGEGTLVTVSSASTKGPSVFPLAPSSKSTSGGTAALGCLVKDYFPEPVTVSWNSGALTSGVHTFPAVLQSSGLYSLSSVVTVPSSSLGTQTYICNVNHKPSNTKVDKKVEPKSCDKTHTCPPCPAPELLGGPSVFLFPPKPKDVLYISRTPEVTCVVVDVSHEDPEVKFNWYVDGVEVHNAKTKPREEQYNSTYRVVSVLQPLHADWLNGKEYKCKVSNKALPAPIEKTISKAKGQPREPQVYTLPPSRDELTKNQVSLTCLVKGFYPSDIAVEWESNGQPENNYKTTPPVLDSDGSFFLYSKLTVDKSRWQQGNEFRCSVMHEALHYHVTQKSLSLSP
light: not shown
notes: EU numbering; copies: 2 + 2
B7: IgG1-F1120 (antibody)
heavy: QVQLQESGPGLVKPSETLSLTCAVSGHSISHDHAWSWVRQPPGEGLEWIGFISYSGITNYNPSLQGRVTISRDNSKNTLYLQMNSLRAEDTAVYYCARSLARTTAMDYWGEGTLVTVSSASTKGPSVFPLAPSSKSTSGGTAALGCLVKDYFPEPVTVSWNSGALTSGVHTFPAVLQSSGLYSLSSVVTVPSSSLGTQTYICNVNHKPSNTKVDKKVEPKSCDKTHTCPPCPAPELLGGPSVFLFPPKPKDVLYISRTPEVTCVVVDVSHEDPEVKFNWYVDGVEVHNAKTKPREEQYNSTYRVVSVLQPLHADWLNGKEYKCKVSNKALPAPIEKTISKAKGQPREPQVYTLPPSRDELTKNQVSLTCLVKGFYPSDIAVEWESNGQPENNYKTTPPVLDSDGSFFLYSKLTVDKSRWQQGNVFRCSVMHEALHYHVTQKSLSLSP
light: not shown
notes: EU numbering; copies: 2 + 2
B8: IgG1-F1114 (antibody)
heavy: QVQLQESGPGLVKPSETLSLTCAVSGHSISHDHAWSWVRQPPGEGLEWIGFISYSGITNYNPSLQGRVTISRDNSKNTLYLQMNSLRAEDTAVYYCARSLARTTAMDYWGEGTLVTVSSASTKGPSVFPLAPSSKSTSGGTAALGCLVKDYFPEPVTVSWNSGALTSGVHTFPAVLQSSGLYSLSSVVTVPSSSLGTQTYICNVNHKPSNTKVDKKVEPKSCDKTHTCPPCPAPELLGGPSVFLFPPKPKDTLYISRTPEVTCVVVDVSHEDPEVKFNWYVDGVEVHNAKTKPREEQYNSTYRVVSVLTVLHQDWLNGKEYKCKVSNKALPAPIEKTISKAKGQPREPQVYTLPPSRDELTKNQVSLTCLVKGFYPSDIAVEWESNGQPENNYKTTPPVLDSDGSFFLYSKLTVDKSRWQQGNVFSCSVMHEALHYHVTQKQLSLSP
light: not shown
notes: EU numbering; copies: 2 + 2
B9: IgG1-F1118 (antibody)
heavy: QVQLQESGPGLVKPSETLSLTCAVSGHSISHDHAWSWVRQPPGEGLEWIGFISYSGITNYNPSLQGRVTISRDNSKNTLYLQMNSLRAEDTAVYYCARSLARTTAMDYWGEGTLVTVSSASTKGPSVFPLAPSSKSTSGGTAALGCLVKDYFPEPVTVSWNSGALTSGVHTFPAVLQSSGLYSLSSVVTVPSSSLGTQTYICNVNHKPSNTKVDKKVEPKSCDKTHTCPPCPAPELLGGPSVFLFPPKPKDVLYISRTPEVTCVVVDVSHEDPEVKFNWYVDGVEVHNAKTKPREEQYNSTYRVVSVLQPLHADWLNGKEYKCKVSNKALPAPIEKTISKAKGQPREPQVYTLPPSRDELTKNQVSLTCLVKGFYPSDIAVEWESNGQPENNYKTTPPVLDSDGSFFLYSKLTVDKSRWQQGNVFNCSVMHEALHYHVTQKSLSLSP
light: not shown
notes: EU numbering; copies: 2 + 2
B10: IgG1-F1123 (antibody)
heavy: QVQLQESGPGLVKPSETLSLTCAVSGHSISHDHAWSWVRQPPGEGLEWIGFISYSGITNYNPSLQGRVTISRDNSKNTLYLQMNSLRAEDTAVYYCARSLARTTAMDYWGEGTLVTVSSASTKGPSVFPLAPSSKSTSGGTAALGCLVKDYFPEPVTVSWNSGALTSGVHTFPAVLQSSGLYSLSSVVTVPSSSLGTQTYICNVNHKPSNTKVDKKVEPKSCDKTHTCPPCPAPELLGGPSVFLFPPKPKDVLYISRTPEVTCVVVDVSHEDPEVKFNWYVDGVEVHNAKTKPREEQYNSTYRVVSVLQPLHADWLNGKEYKCKVSNKALPAPIEKTISKAKGQPREPQVYTLPPSRDELTKNQVSLTCLVKGFYPSDIAVEWESNGQPENNYKTTPPVLDSDGSFFLYSKLTVDKSRWQQGNVFSCSVMHEALHYHVTQKELSLSP
light: not shown
notes: EU numbering; copies: 2 + 2
B11: IgG1-F1116 (antibody)
heavy: QVQLQESGPGLVKPSETLSLTCAVSGHSISHDHAWSWVRQPPGEGLEWIGFISYSGITNYNPSLQGRVTISRDNSKNTLYLQMNSLRAEDTAVYYCARSLARTTAMDYWGEGTLVTVSSASTKGPSVFPLAPSSKSTSGGTAALGCLVKDYFPEPVTVSWNSGALTSGVHTFPAVLQSSGLYSLSSVVTVPSSSLGTQTYICNVNHKPSNTKVDKKVEPKSCDKTHTCPPCPAPELLGGPSVFLFPPKPKDTLYISRTPEVTCVVVDVSHEDPEVKFNWYVDGVEVHNAKTKPREEQYNSTYRVVSVLQVLHADWLNGKEYKCKVSNKALPAPIEKTISKAKGQPREPQVYTLPPSRDELTKNQVSLTCLVKGFYPSDIAVEWESNGQPENNYKTTPPVLDSDGSFFLYSKLTVDKSRWQQGNVFNCSVMHEALHYHYTQKSLSLSP
light: not shown
notes: EU numbering; copies: 2 + 2
B12: IgG1-F1119 (antibody)
heavy: QVQLQESGPGLVKPSETLSLTCAVSGHSISHDHAWSWVRQPPGEGLEWIGFISYSGITNYNPSLQGRVTISRDNSKNTLYLQMNSLRAEDTAVYYCARSLARTTAMDYWGEGTLVTVSSASTKGPSVFPLAPSSKSTSGGTAALGCLVKDYFPEPVTVSWNSGALTSGVHTFPAVLQSSGLYSLSSVVTVPSSSLGTQTYICNVNHKPSNTKVDKKVEPKSCDKTHTCPPCPAPELLGGPSVFLFPPKPKDVLYISRTPEVTCVVVDVSHEDPEVKFNWYVDGVEVHNAKTKPREEQYNSTYRVVSVLQPLHADWLNGKEYKCKVSNKALPAPIEKTISKAKGQPREPQVYTLPPSRDELTKNQVSLTCLVKGFYPSDIAVEWESNGQPENNYKTTPPVLDSDGSFFLYSKLTVDKSRWQQGNEFSCSVMHEALHYHVTQKSLSLSP
light: not shown
notes: EU numbering; copies: 2 + 2

T1 sequence (chain, as listed by the source limits assumed, chain 1 of 2): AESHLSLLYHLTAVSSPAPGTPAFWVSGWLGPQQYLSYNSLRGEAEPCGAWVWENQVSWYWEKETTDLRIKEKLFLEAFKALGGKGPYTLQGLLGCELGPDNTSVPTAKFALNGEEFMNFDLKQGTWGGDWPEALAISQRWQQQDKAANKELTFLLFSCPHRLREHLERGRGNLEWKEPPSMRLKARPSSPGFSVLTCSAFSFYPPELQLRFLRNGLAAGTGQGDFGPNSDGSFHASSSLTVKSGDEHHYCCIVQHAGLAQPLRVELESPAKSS
T1 sequence (P61769 21-119 limits assumed, chain 2 of 2): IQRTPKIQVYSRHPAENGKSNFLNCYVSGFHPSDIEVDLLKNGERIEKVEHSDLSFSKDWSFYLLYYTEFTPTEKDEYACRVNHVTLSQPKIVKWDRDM

This assay addresses T1, soluble human FcRn complexed with β2-microglobulin (human, UniProt P61769 21-119, limits assumed).
T1 construct: also called hFcRn
Nature of the assay: Biacore SPR, pH 7.0.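 Further: test antibodies captured on a Protein L chip with human FcRn flowed over as analyte, KD obtained as the ratio of dissociation to association rate constants.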
Procedure: A kinetic analysis of binding between human FcRn and the aforementioned antibodies was carried out using the BIACORE™ T100 or T200 surface plasmon resonance system (GE Healthcare). The antibodies being tested were captured on the CM4 Sensor Chip (GE Healthcare) on which a suitable amount of Protein L (ACTIGEN® protein (Alltech)) was suitably immobilized by amine coupling. Next, diluted human FcRn and a running buffer used as a blank were injected to allow the human FcRn to interact with the antibody captured on the sensor chip. A buffer consisting of 50 mmol/L sodium phosphate, 150 mmol/L NaCl and 0.05% (w/v) polysorbate 20 (Tween 20®) (pH 7.0 or pH 7.4) was used for the running buffer, and each buffer was also used to dilute the human FcRn. 10 mmol/L glycine-HCl (pH 1.5) was used to regenerate the sensor chip. All measurements of binding were carried out at 25° C. The KD(M) of each antibody to human FcRn was calculated based on kinetics parameters, i.e., the association rate constant ka (1/Ms) and the dissociation rate constant kd (1/s) calculated from a sensorgram obtained by the measurement. The BIACORE™ T100 or T200 Evaluation Software (GE Healthcare) was used to calculate each parameter.
In general, Kd refers to the concentration at which binding is half-saturated. Low values mean tighter binding, high ones weaker binding. The molecule B1 displayed an equilibrium dissociation constant (Kd) of 123 nM.
B2 had a Kd of 135 nM.
B3 had a Kd of 48.7 nM.
B4 registered a dissociation constant Kd of 13.7 nM.
As for B5, the dissociation constant Kd was found to be 12.2 nM.
Consider B6, for which the equilibrium dissociation constant (Kd) worked out at 10.4 nM.
In turn, B7 had a dissociation constant (Kd) of 10.4 nM.
The same measure for B8: 131 nM; for B9: 13.2 nM; for B10: 9.55 nM.
For B11, binding was characterised by a dissociation constant (Kd) of 74.4 nM.
B12 yielded an equilibrium dissociation constant (Kd) of 10.3 nM.

Source of the values: patent publication US20200199241A1 (Chugai, published 2020).
